Key:
PAI-1 [1] = biological target: T1, PAI-1 (Homo sapiens, UniProt P05121); assay: Inhibition of PAI-1 anti-proteolytic activity, uPA/plasminogen chromogenic (colorimetric) assay; assay type: biochemical; details: for PAI-1 activity in vitro (chromogenic assay): yes/no, table title: Peptide fragments inhibiting PAI-1
T1 construct: gift of Pr; P. Declerck
Experimental: The main physiological function of PAI-1 is to inhibit uPA and tPA proteolytic activity. […] A chromogenic substrate for plasmin (Spectrozyme PL: 0.5 mM. American Diagnostica INC) in PBS was added to the mixture in 96-well microtitration plates and kept at room temperature. The release of free p-nitro-aniline from the chromogenic substrate was measured spectrophotometrically. The activity of plasmin was determined as the absorbance at 405 nm.

PAI-1 [2] = biological target: T1, PAI-1; assay: Casein zymography of plasmin generation by uPA in presence of PAI-1; assay type: biochemical
Experimental: (a) Proteolytic activity of uPA on plasminogen (Plg) in different conditions was determined by colorimetric assay (absorbance at 405 nm) as described in Methods. […] The data represent the means±SD of duplicate samples and experiment was repeated at least three times. (b) Casein zymography showing Plg and plasmin (Pln) generation by uPA in the presence of PAI-1 alone or in combination with 14K GH or 22K GH.
For this test casein (1 mg/ml) was incorporated in 10% SDS polyacrylamide gels. Aliquots of in vitro reaction including recombinant proteins were mixed with loading buffer (10% SDS, 4% Sucrose, 0.25M Tris-Hcl pH6-8, 0.1% Bromophenol blue). After electrophoresis, SDS was removed from the gel by two washes (30 min each) of 100 mM glycine, 2.5% Triton buffer (pH 8.0) stained with 0.1% coomassie brilliant bleu, and destained in 20% methanol/10% acetic acid.

PAI-1 [3] = biological target: T1, PAI-1; assay: In vitro clot lysis assay in pooled normal human plasma with added PAI-1 and tPA; assay type: biochemical; details: peptides 25 μM, human plasma; for ablility to induce clot lysis: yes/no, added PAI-1, tPA
Experimental: Clot lysis was performed as follows: pooled normal plasma were used in citrated tube. Recombinant wild type PAI-1 was incubated in the presence or in the absence of 16K hPRL (3 μM), 14K hGH (3 μM) or different peptides (25 μM) for 10 min at 37° C., before to be added to diluted plasma in tris tween buffer (75 μl of plasma in 200 μl of 10 mM TRIS pH 7.5, 0.01% tween 20), followed by a second incubation for 10 min at 37° C. tPA was added to each tube at the end to reach a final volume of […]. Aliquots from each tube (80 μl) were added in duplicate to 96 wells, each containing 20 μl CaCl2 to give the following final concentration per well of 10 mM. Clot formation and dissolution were monitored at RT measuring turbidity at 405 nm in 5 min intervals.

PAI-1 [4] = biological target: T2, PAI-1 (Mus musculus, UniProt P22777); assay: Murine thromboembolism model (tPA/thromboplastin); assay type: in vivo; details: POPRL 7-12 10 mg/kg i.v. 5 min before t-PA/thromboplastin; control 50; p=0.3
T2 construct: from tissue; host or cells: BalbC Njrj mice, in vivo (blood)
T2 sequence (P22777 23-402): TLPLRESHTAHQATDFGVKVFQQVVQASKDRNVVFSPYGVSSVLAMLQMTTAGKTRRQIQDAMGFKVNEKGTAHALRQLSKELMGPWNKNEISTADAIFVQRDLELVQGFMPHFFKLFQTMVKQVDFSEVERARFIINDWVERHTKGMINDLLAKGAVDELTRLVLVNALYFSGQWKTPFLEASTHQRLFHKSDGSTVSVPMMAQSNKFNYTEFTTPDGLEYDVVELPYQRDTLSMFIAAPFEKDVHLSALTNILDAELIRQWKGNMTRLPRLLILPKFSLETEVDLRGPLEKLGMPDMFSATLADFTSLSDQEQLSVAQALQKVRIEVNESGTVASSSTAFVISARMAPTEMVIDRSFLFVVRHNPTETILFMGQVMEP
Experimental: BalbC Njrj Mice were used and anesthetised with ketamine/xylazine throughout the whole experiment. Recombinant 16K PRL and adenovirus vectors 16K-Ad and Null-Ad were produced as described above. The animal experiment protocol used was approved by the Institutional Ethics Committee of the University of Liege.
Recombinant 16K PRL (1 mg/kg) or POPRL 7-12 (10 mg/kg) were administrated via the vein to BalbC Njrj mice of approximately 15-18 g. Five minutes after the injection, a suboptimal concentration of t-PA (0.1 mg/kg) was injected immediately followed by i.v. injection of thromboplastin (3.3 μg/kg) to evoke thromboembolism. Mice were evaluated after 15 min for survival. For experiment with adenovirus vectors, mice were injected into the tail vein with 10^9 pfu of 16K hPRL adenovirus (16K-Ad) and their corresponding control (Null-Ad) 5 days before the injection a suboptimal concentration of t-PA (0.1 mg/kg) injected immediately followed by i.v. injection of thromboplastin (3.3 μg/kg).
The fisher test was used to determine the significance of the differences in the mortality assays.

T1 sequence (P05121 24-402): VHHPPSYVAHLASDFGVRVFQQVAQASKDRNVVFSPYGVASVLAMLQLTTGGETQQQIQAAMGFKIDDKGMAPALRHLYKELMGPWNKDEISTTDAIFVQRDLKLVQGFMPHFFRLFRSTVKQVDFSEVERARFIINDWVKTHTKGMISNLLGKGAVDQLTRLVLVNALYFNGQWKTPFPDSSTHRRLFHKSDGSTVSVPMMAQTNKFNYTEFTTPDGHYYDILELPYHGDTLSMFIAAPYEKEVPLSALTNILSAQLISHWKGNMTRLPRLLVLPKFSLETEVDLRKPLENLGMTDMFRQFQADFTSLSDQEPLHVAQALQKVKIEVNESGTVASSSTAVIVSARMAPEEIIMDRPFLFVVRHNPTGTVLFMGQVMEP

| Substance | inhibition of PAI-1 function to inhibit uPA and tPA proteolytic activity (PAI-1 [1]; uPA, bovine plasminogen, PAI-1, absorbance 405 nm) | inhibition of plasmin (Pln) generation in the presence of PAI-1 (PAI-1 [2]) | ablility to induce clot lysis (PAI-1 [3]) | PAI-1 activity in vitro (chromogenic assay) (PAI-1 [1]) | mortality (PAI-1 [4]) [%] | clot lysis in the presence of added PAI-1 (PAI-1 [3]) |
| --- | --- | --- | --- | --- | --- | --- |
| 22K GH: the full fragment (full-length) growth hormone [reference compound] | did not show any inhibition | no effect | – | – | – | – |
| FLSLIV [POPRL 1-6] | – | – | yes | yes | – | – |
| IQSWLE [POGH 9-14] | – | – | yes | yes | – | – |
| IVSILR [POPRL 5-10] | – | – | yes | yes | – | – |
| LLRISL [POGH 1-6] | – | – | yes | yes | – | – |
| LLRISLLLIQSWLE [POGH] | – | – | yes | yes | – | – |
| LSQILSSLIQSWLE [POGHmut, reference compound] | – | – | no | no | – | – |
| RISLLL [POGH 3-8] | – | – | yes | yes | – | – |
| SILRSW [POPRL 7-12] | – | – | yes | yes | 30 | – |
| SLLLIQ [POGH 5-10] | – | – | yes | yes | – | as effective as the tilted peptide of GH: POGH |
